{"source": "paper PMC5827136", "target": "Histone H4 (UniProt P62805)", "experiment": "SPR"}
{"substance": "protein SIC (Streptococcal Inhibitor of Complement) (natural protein)", "values": [{"measurement": "Kd", "result": 17.6, "unit": "nM"}, {"measurement": "koff", "result": 0.000591, "unit": "s⁻¹"}, {"measurement": "kon", "result": 33500, "unit": "M⁻¹ s⁻¹"}]}
